# Data from patent US20210087268A1 (YUHAN, published 2021).
# T1: CD96 (Sinobiological) (UniProt P40200-2 22-503, limits assumed)
# T1 sequence (looked up): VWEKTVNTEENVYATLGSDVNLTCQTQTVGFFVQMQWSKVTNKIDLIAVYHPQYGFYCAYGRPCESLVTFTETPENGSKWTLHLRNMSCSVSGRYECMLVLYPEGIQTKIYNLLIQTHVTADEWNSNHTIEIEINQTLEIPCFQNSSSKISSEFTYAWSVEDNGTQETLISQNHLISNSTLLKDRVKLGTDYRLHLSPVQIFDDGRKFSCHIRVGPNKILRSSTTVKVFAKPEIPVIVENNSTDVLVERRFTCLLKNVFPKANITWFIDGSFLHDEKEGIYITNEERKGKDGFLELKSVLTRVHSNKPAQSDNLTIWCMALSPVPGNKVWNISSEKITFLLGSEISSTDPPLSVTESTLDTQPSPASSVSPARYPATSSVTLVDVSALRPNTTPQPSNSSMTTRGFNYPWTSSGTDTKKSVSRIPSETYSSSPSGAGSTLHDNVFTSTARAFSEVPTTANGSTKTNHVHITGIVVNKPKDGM
# T2: CD155 (Sinobiological), ELISA antigen (UniProt P15151 21-343)
# T2 sequence (looked up): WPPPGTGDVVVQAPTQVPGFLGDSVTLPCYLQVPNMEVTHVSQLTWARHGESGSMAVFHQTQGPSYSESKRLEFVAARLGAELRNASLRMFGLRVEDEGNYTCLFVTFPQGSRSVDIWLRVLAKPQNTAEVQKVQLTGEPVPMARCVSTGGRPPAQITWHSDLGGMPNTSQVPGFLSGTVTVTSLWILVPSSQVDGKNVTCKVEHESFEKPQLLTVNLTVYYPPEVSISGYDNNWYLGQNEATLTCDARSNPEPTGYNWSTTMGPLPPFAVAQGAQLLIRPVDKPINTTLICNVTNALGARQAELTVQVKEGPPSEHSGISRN
# T3: CD226 (R&D Systems) (UniProt Q15762 19-247, limits assumed)
# T3 sequence (looked up): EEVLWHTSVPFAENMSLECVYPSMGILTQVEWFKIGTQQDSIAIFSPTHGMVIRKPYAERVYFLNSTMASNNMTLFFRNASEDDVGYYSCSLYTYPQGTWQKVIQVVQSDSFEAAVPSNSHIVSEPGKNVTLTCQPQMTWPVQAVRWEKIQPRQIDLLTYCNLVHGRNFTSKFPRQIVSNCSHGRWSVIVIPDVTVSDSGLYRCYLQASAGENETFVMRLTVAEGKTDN
# T4: CD112 (R&D Systems) (UniProt Q92692 32-360, limits assumed)
# T4 sequence (looked up): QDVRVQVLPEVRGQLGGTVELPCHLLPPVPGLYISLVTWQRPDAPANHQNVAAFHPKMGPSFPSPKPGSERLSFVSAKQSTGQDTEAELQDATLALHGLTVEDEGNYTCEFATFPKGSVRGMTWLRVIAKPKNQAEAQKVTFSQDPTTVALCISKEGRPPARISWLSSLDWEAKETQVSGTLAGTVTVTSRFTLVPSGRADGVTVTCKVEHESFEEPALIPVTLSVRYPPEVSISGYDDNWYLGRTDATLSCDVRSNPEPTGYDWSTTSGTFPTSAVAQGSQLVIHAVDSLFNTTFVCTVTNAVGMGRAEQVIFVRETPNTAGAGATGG
# T5: mouse TIGIT (R & D Systems), ELISA antigen (mouse, UniProt P86176 29-148, limits assumed)
# T5 sequence (looked up): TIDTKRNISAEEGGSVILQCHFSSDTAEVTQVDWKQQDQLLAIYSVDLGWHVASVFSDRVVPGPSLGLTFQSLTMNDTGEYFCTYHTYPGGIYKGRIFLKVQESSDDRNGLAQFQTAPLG
# Experiments:
# CD96 (Sinobiological) = target: T1, CD96 (Sinobiological); experiment: ELISA, antigen coated at 100 ng/well, 30 ng antibody per well (one amount), absorbance 450 nm
# Experimental: (§1) The binding of the anti-TIGIT antibodies to TIGIT superfamilies such as CD96 (Sinobiological), CD155 (Sinobiological), CD112 (R&D Systems), CD113 (R&D Systems) and CD226 (R&D Systems) antigens was identified by ELISA in order to determine the TIGIT specificity of the anti-TIGIT antibodies screened by phage display screening. Six types of antigens including TIGIT were coated at 100 ng/well on a 96-well plate, treated with 30 ng of each screened antibody and incubated at room temperature for 1 hour. After washing three times with TBST, 30 μL of TBST (5% BSA) diluted at 1:3,000 with an anti-human Fab-HRP secondary antibody (Jackson) was added to each well and incubated at room temperature for 1 hour. After washing three times with TBST, 30 μL of the resulting TMB solution was added to each well. After ceasing the reaction with 1N H₂SO₄, color development was determined at an absorbance of 450 nm. The binding of the selected antibodies to the six antigens was identified. As a result, it can be seen that all the antibodies specifically bound only to the TIGIT antigen (FIG. 2).
# CD113 (R&D Systems) = CD113 (R&D Systems) (UniProt Q9NQS3 58-404, limits assumed); experiment: as above
# CD113 (R&D Systems), sequence (Q9NQS3 58-404 limits assumed): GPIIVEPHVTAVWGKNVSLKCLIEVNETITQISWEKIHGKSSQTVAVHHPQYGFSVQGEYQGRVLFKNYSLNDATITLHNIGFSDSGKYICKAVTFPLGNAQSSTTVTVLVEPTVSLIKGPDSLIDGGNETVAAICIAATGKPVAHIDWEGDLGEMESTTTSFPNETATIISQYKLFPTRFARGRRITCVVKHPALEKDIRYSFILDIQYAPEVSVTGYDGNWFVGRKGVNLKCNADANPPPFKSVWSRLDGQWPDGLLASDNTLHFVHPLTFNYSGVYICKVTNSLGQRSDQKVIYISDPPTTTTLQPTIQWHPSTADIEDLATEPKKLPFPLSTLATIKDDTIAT
# Experimental: as §1
# [1] = target: T2, CD155 (Sinobiological), ELISA antigen; experiment: as above
# Experimental: as §1
# CD226 (R&D Systems) = target: T3, CD226 (R&D Systems); experiment: as above
# Experimental: as §1
# CD112 (R&D Systems) = target: T4, CD112 (R&D Systems); experiment: as above
# Experimental: as §1
# [2] = target: T5, mouse TIGIT (R & D Systems), ELISA …; experiment: ELISA, antigen coated on the plate, 30 ng antibody per well (one amount), absorbance 450 nm
# Source text: In order to determine the species cross-reactivity of the anti-TIGIT antibodies screened by phage display screening, whether or not the anti-TIGIT antibodies bound to human TIGIT (R&D Systems), mouse TIGIT (R & D Systems) and rhesus TIGIT antigens was identified by ELISA. The rhesus TIGIT antigens used herein were expressed and purified in the form of Fc-fusion by gene synthesis with reference to the Rhesus TIGIT gene sequence (NCBI accession No. XP_014985303.1). Each of three types of the TIGIT antigens diluted at a concentration of […] in PBS was added at 30 μl/well to a 96-well plate and incubated overnight at 4° C. to induce coating. Then, 30 ng of the screened antibody was bound to the TIGIT antigen, and 30 μL of a TBST (5% BSA) solution diluted at 1:3,000 was added to each well and incubated at room temperature for 1 hour. After washing three times with TBST, 30 μL of the TMB solution was added to each well to induce color development. After ceasing the reaction with 1N H₂SO₄, color development was determined at an absorbance of 450 nm. The species cross-reactivity of the screened antibodies bound to […] of antigens was identified (FIG. 1).
Binder,binding result (CD96 (Sinobiological)),binding result (CD113 (R&D Systems)),binding result [1],binding result (CD226 (R&D Systems)),binding result (CD112 (R&D Systems)),binding result [2]
"F04 (IgG1 form) (antibody, V domains shown) VH: EVQLLESGGGLVQPGGSLRLSCAASGFTFSSYYMSWVRQAPGKGLEWVSSIGSYYTYYADSVKGRFTISRDNSKNTLYLQMNSLRAEDTAVYYCARSSYSGGNGYYYYAYAFDYWGQGTLVTVSS VL: EIVLTQSPGTLSLSPGERATLSCRASQSVSSSYLAWYQQKPGQAPRLLIYGASSRATGIPDRFSGSGSGTDFTLTISRLEPEDFAVYYCQQGYHRYATFGQGTKVEIK",no binding (tested: 30 ng per well),no binding (tested: 30 ng per well),no binding (tested: 30 ng per well),no binding (tested: 30 ng per well),no binding (tested: 30 ng per well),binds
"S64 (IgG1 form) (antibody, V domains shown) VH: EVQLLESGGGLVQPGGSLRLSCAASGFTFSNYAMSWVRQAPGKGLEWVSAIYPGGGSIYYADSVKGRFTISRDNSKNTLYLQMNSLRAEDTAVYYCAKAIRTCSLSHCYYYYGMDVWGQGTLVTVSS VL: QSVLTQPPSASGTPGQRVTISCSCSSSNIGNNAVSWYQQLPGTAPKLLIYYDSNRPSGVPDRFSGSKSGTSASLAISGLRSEDEADYYCGSWDYSLSAYVFGGGTKLTVLG",no binding (tested: 30 ng per well),no binding (tested: 30 ng per well),no binding (tested: 30 ng per well),no binding (tested: 30 ng per well),no binding (tested: 30 ng per well),binds
